Measured values published in a protein production outcome set (Wang et al. 2014).

Assay: label from the status in PepcDB records

Question: Which protein production does the source give for “MSFDISELLTLYDVVTFSFPERYEDLMREIIEKATRLFGVRRLAIVLREGERYKCIERWGFRRDEEVLERIKNGGENSFIYLMRNGEQGLLYIEPPGRISEREKRLYTIFARRIENIIARKQIEEKIKNSEQEKKVILDSIVELLVFQNPDNRILWANRAAAEYAGARSEELAGRFCYEALHHRDEPCEECPVIKALDTGVPQEGIIASLEGRQFFVRGYPVKKENGLIEGIVEVSVDVTERMQAEEAFRTIFNSVHDAIFIHTLDGKIIDVNQTMLRMYVINSKEEAIKLSIIDDYSIPGSTAEQLPLLWQKVISGENLLFEWKARRPVDGSVFDVEVFLKKISLSKKDVILAAVRDITERKREEELLRNLFTHSPIGMYIVSEGKFQLINPQFEILTGYRQDKLIGMESLNLVVPEDRKMVRSNAIKMLKGEAVEPYEFRIVTGQGDIRWMEETVASIWHDGKRVTLGNIIDITQKKKFEQKLAYISLHDQLTALYNRAYFEEELKRLSTSRKYPITIIVADVNGLKLVNDTMGHDKGDELLTACARVLKKAFRSSDVVARVGGDEFVALLPRTDGKTGKSILKRLRLFIDKYNQEHPELPLSVSFGIATADTPEQSLKEIYKKADDLMYQEKLNLGSSARSKIVNALLTALSERDYITEGHARRMQKLCQDLGEKVGLSAQQLANLSLLAQVHDLGKVGIPDRILFKRGPLTEKEWEVMRQHPEKGYRIAMSSPDLAGIADLILKHHEKWDGTGYPLGLKEEEIPIECRILSIVDAFDAMTSGRPYCRTKTIEDALKEIRRCAGTQFDPRLAEAFIEMITSEKFTAGEKEVAT” here?
Answer: failed

Question: With “MSFFLTTPAAIDLGVNIDHVATLRNARGTAYPDPVRAALAAEDAGADAITLHLREDRRHIVDADVRTLRPRVKTRMNLECAVTPEMLDIACEIRPHDACLVPEKRSELTTEGGLDVVGHFDAVRAACKQLADAGVRVSLFIDPDEAQIRAAHETGAPVIELHTGRYADAHDAAEQQREFERIATGVDAGIALGLKVNAGHGLHYTNVQAIAALPGIAELNIGHAIVAHAVFVGWDNAVREMKAIMVAARVAALHGGR” as the sequence, how does the protein production read?
Answer: not failed

Question: Which protein production does the source give for “MSFGDTLGLGFMTFAFFLGAGNLIFPPFAGMLAGENMLLAMLGFLITAVGLPLVGLIAVAKAQGKVMAMLPVFAATALAIAIYIIIGPAFAAPRTGLVAYEIGAKPFIDNTTATIMLGSLSLNLSQLIYTLGFFIVTMLLALFPGKLLDSVGKVLTPILLLLLVGLALSVLFLPASEVGVAVGDYKNHPLTKGILEGYNTMDTLASLMFGMLIIDLLRKKGIEQPSAQTKYLIRAAFIAAAGLAFVYVSLFFLGATAGDIAAGAKNGGEILTNYVTREFGSLGTVLLSAVVTLACLTTAVGLVSACSEFFNELMPKLSYRFLVVALSAICALIANVGLSQLINISIPVLMAVYPVAIALVAVTFLTEYFPRPQFAHRAALSVALLFGIFDGMKVAAKSLTGEDGRGITEFAQSFIDFVNGMSPTLSILPLYEEGMAWLLPTLVVIVLCLIIRGSGAKTVSAA” here?
Answer: failed

Question: For “MSFIRTFYGDIAPEQLGFTYSHEHIVCVPAYWQERDADDLLLDDKEKSQLDVQDFADLGGKTIVDATAVDYGRRVLDVAQISKETGIQIVGTAGFNKSFLWDGKIKPELKPIIGDFETYYEWIENTSIDKLTEFVVNEVENGLEGTPYKAGQVKFGTGYNMITPLEEKTIRAVARAHHETKAPIHSHTEAGTMALEQIEILKQENIPLEYLSIGHMDRNLDPYYHKQVAKTGAFMSFDGIAKIKYAPESARIAAILYLVSEGFEDQILVSGDTARKTYYKHYGHGPGLEYIAKKWVPRFIDEANEKGFDGEKLVKKFFVDNPARCFTFKK”, which protein production is on record?
Answer: failed

Question: Which protein production does the source give for “MSFKRDRGDYKGRIDWFTIILYLLLVVAGWFAVCGASYDFDISHLFMMGGRPMMQLLWIGLAVVIGFMVLLMETDIFESLAPVFYAAMLGLLALTILIAPDIKGSHSWLVIGPLRLQPAEFAKVTTALFLAWKLNQNDFVLRGMKAYASTFAIILIPVLLILMQNETGSALVYIAFFLALYREGMSGVFIGIAFCAVLFFVTALKLQGDVWWGHTDAAEWSVVSMAFVIGFFLVRIYTKERGRFYVVAAGLTAVTYAVAIVLSYFVSVDFVLVAYGLLAALIVWALSMAIKRYVLSYALIAVFALCSVGYFYSVDYVFNKVMQPHQQMRIRVALGIEDDLRGGGYNVDQSKIAIGSGGFMGKGFLKGTQTKLKYVPEQDTDFIFCTVGEEQGFLGSVLLLIGYATLIIRIVALAERQTKVFSRVYGHSVAAILLFHLSINVGMVIGLVPVIGIPLPFFSYGGSSLWGFTLLIFIFLRLDADRDCR” here?
Answer: failed

Question: For “MSFLCVRTVSRFRSLSRALAPGFLLLHGNAVPKTAVFFRQQSSNTRLFSSYTAPSGVEENNSKSALKNKLPPGKEVSSKDAKEKITTSAIDLALNSVVKVFTVSSKPRLFQPWQITMQSESTGSGFVISGKKILTNAHVVANQTSVKVRKHGSTTKYKAKVQAVGHECDLAILEIDNDKFWEGMNPLELGDIPSMQDTVYVVGYPKGGDTISVSKGVVSRVGPIKYSHSGTELLAIQIDAAINNGNSGGPVIMGNKVAGVAFESLCYSDSIGYIIPTPVIRHFLNAIEESGEDVSFGSINLTYQKMDNDQLRKDFKMSDKMTGILINKINPLSDVHKVLKKDDIILAIDGVPIGNDSSVHFRKKERITFKHLVSMKKPCETALLKVLREGKEYEFNSSLKSVPPLVPKRQYDKSASYYIFGGLVFLPLTKPYIDSSCVSESALGKMPKKAGEQVVIISQILEDDINTGYSIFEDFQVKKVNGVQVHNLKHLYKLVEECCTETVRMDLEKDKVITLDYKSAKKVTSKILKSLKIPSAVSEDLQPKQQNKRSKVPPKSKEH”, which protein production is on record?
Answer: failed

Question: With “MSFRAFLPAAMLVTVAGFWLGASTPGVAQYCEGTVHGLSGRYNLATGSGFLAVRTRPNSSSRMIGQLFNGDHVEIFDRRGNWYQVEIGGSTGWANARWLRNDCRY” as the sequence, how does the protein production read?
Answer: failed

Question: Which protein production does the source give for “MSFSDHFSAVAASYAKARPRYPQRWFRYLARIVPDRQRVWDCATGNGQAAIALAEYFSEVIGSDASAAQVRQARSHPRVQYLVFPAEATPLAPASLDLITVAQAAHWFDLPQFYIEAQRLLRPGGVIALWGYGLGSLNPAIDHVFNHFYRDWLDPYWPPERQWVEQAYEGLSFPFEPLPTPTFSMQCDWTLFDLLAYLRTWSGVQQFQRQRGFDPVWAIAPELQRVWGDPQRYRRITWPLFAKVGRWQPDRVRLEHHHHHH” here?
Answer: failed

Question: With “MSFSRHIGVTMIDVVDLSRLQFALTAMYHFLFVPLTLGMAFLLAIMESMYVMTNKQIYKDMTKFWGKLFGINFALGVATGLTMEFQFGTNWSYYSHYVGDIFGAPLAIEALVAFFLESTFVGLFFFGWDRLSKRQHLAVTWLVALGSNFSALWILIANGWMQNPVGADFNFETMRMEMVSFSEVVLNPVAQVKFVHTVASGYTCGAMFILGISSYYLLKGRDIAFARRSFAIAASFGIAAILSTIVLGDESGYELGEVQKVKLAAIEAEWHTEPAPAAFTLFGVPNQETMHTDYAIKIPYVMGIIATRSFDEQVTGLRDLRDEHVERIRGGMYAYELLEKLRAGDKSEENMTAFDEVKGDLGYGLLLKRYTDNVVDATEEQIQAAADDSIPTVWPLFWSFRIMVACGFIMLFVFGAAFIQTCRQKIEQKQWILKAALLSIPLPWIAIEAGWFVAEYGRQPWAVGEILPVHVAASALTAGEIWTSLFAILALYTVFLIAEVYLMLKFARKGPSSLKTGRYHFEQNADSVEDKVSRQVEA” as the sequence, how does the protein production read?
Answer: failed

Question: With “MSFVPSLPNLGRFWTAANALSLCRLALVVPITVFLWRDGPLGWLLGLVILVILTDWFDGRIARWTHSVSDWGKVIDPVADKFAAIMTVTALTFRPADPHLPLWFFGLVVGRDVAILLGGMAIARRSGQIVMSAWAGKAASLWLALTILSVILRADPPVFRVCLWMATGLFVFSFLLYVVRYLQATRNAEGATPDSVPQGP” as the sequence, how does the protein production read?
Answer: failed

Question: Which protein production does the source give for “MSGARNVEQWQDFIGSCLDFRPADGVFRIARDMFTEPELFDLEMELIFEKNWIYACHESELPNNHDFITMRAGRQPMIITRDGEGRLNALVNACQHRGTTLTRVGKGNQSTFTCPFHAWCYKSDGRLVKVKAPGEYDEGFDKATRGLKKARIESYKGFVFISLDVAADNSLEDFLGDARIFFDMMVAQSPDGELEVLPGKSAYTYDGNWKLQNENGLDGYHVSTVHYNYVATVQHRQQVNADSGAGSSATLDYSKLGAGDASTDDGWFAFENGHSVLFSEMPNPAVRSGYASIMPRLVAEHGQAKAEWMMHRLRNLNIYPSLFFLDQISSQLRIIRPIAWNKTEIISQCIGVKGESDADRENRIRQFEDFFNVSGMGTPDDLVEFREAQRGFQGRLERWSDISRGRQHWVSGPTANSENLGIQPAMTGTEITHEGLYVNQHRNWQKFLLDGLQRRPLKLREV” here?
Answer: failed

Question: Which protein production does the source give for “MSGEGNLGKDHEEENEAPLPGFRFHPTDEELLGYYLRRKVENKTIKLELIKQIDIYKYDPWDLPRVSSVGEKEWYFFCMRGRKYRNSVRPNRVTGSGFWKATGIDKPVYSNLDCVGLKKSLVYYLGSAGKGTKTDWMMHEFRLPSTTKTDSPAQQAEVWTLCRIFKRVTSQRNPTILPPNRKPVITLTDTCSKTSSLDSDHTSHRTVDSMSHEPPLPQPQNPYWNQHIVGFNQPTYTGNDNNLLMSFWNGNGGDFIGDSASWDELRSVIDGNTKP” here?
Answer: failed

Question: Which protein production does the source give for “MSGHDHGDDGVNRRKVLECMTWAGTGVLWTITGGVPRSLGIIDSAQAATAAAPGMTFLQISDSHVGFDKPANPNALGTLEEAINKINAMPAKPSFMIHTGDITHLSKAAEFDNAERIISQTKLDVHYVPGEHDFIDEEVKLYRERYGRGTKGHGWYSFDAGGVHFVGLVNVVDLKAGGLGNLGAEQLAWLEDDLRGKSKSTPVVLFAHIPLWTVYPEWGWGTEDGGRALEYVKGFGSVTVLNGHIHQVMQKVEGNVTFHTARSTAFPQPAPGAAPSPGPMKVEDARLRSMLGVASINFKQNEQRLAIIDTPLQG” here?
Answer: failed

Question: With “MSGISSLGGRVGVTILEILIFSAGLLLLIKGSDIFVEAATRIAEAFKVSEFLIALVLASVATTLPEVTVSAISSYRGNSGIAIGNAVGSALANIALILAISAMIMPLNVDKIASENSLIMVGVTFYAWLLMSNGEISRIEGLTLVLIYAAFLYYLYRKHVKLEEVEKKSRCNVTRDVLILFLSGGMVILGAELVVDSAVKIARAIGIPEVVIGVTLVSIGTSLPEFANSLTATLKKIPNVSVGNIIGADILDILMVIGIASMIRPIRVDPSIVKIVMPITLLVMIILTVSLFRNNKIGRKTAVTLLIIYSAFIYLLTQGKVYIPG” as the sequence, how does the protein production read?
Answer: failed

Question: Which protein production does the source give for “MSGKNIVFLVLLLFIPVSLAAHYLEWGDLIVFITAGLAILPLAAWMGAATEEIAVVVGPTLGGLLNATFGNATELIIALVALNAGLVNVVKASITGSIIGNLLLVMGLSMLLGGLRHKEQTFQPIVARVNASAMNLAVIAILLPTAMNYTAQGIGEETLQYLSVAVAVVLILVYILTLIFSMKTHAYLYDVGVAEIETEENPHPKPNILLWSGVLLVCTLLVAVESELLVDALEVATSQLGLTALFTGVILVPIVGNAAEHATAVTVAMKDKMDLSVSVAVGSSMQIALFVAPVLVIAGWILGQPMDLDFQPFELVAVVVSVLIANSISSDGKSNWLEGTLLLAAYTVLGFAFYFHPDVGGLG” here?
Answer: failed

Question: Which protein production does the source give for “MSGKRVAKNTLFQIVKMLITTVVNLYMVRVLLHQLGVEGYGIFNLIAGVLALMLFLNGAMTTSSQRYLSFYSTQQLEKRTSVFATTKSLHIVVAMIIFLLLFSLQTFIFEDLINIPVSVVSSAQSLYQIMAVGVLASVVTVPFNAQINANEDLGIDAVFSVFESLFKLIAAFLIVFFENQLVSLGALFVLVSWTMLIVKVVYCRIKYEECNLLNFKLDIALFKEMIGFTSWNSFGAICGVARVQGLAVVLNHFFGVYINAVYAIAVQVNGKLKEFSINIMKAFNPRIVKAESKDNREEMLHLSMLASRFSLLLYSVIALPIFFETDFMLSIWLGDYPDGVLTFIKLFLVLAFVNLTTVGLQTAIQATGDVKAYQSTIGSVLLLTVPLAYIFLSLGYPPYTVIVVSIFMEVVSCGMRLAFLKLKAGLSIKKYILFVINKALQVLIPTIVVLFSLTISFEQSILRFISTTLVSFGMISFLTYWLVLGVEEKKMIRLKV” here?
Answer: not failed
